IntAct's records for PubMed 21320496

B1: Abl interactor 1 (Homo sapiens), Q8IZP0-4 (parent)
chain: MAELQMLLEEEIPSGKRALIESYQNLTRVADYCENNYIQATDKRKALEETKAYTTQSLASVAYQINALANNVLQLLDIQASQLRRMESSINHISQTVDIHKEKVARREIGILTTNKNTSRTHKIIAPANMERPVRYIRKPIDYTVLDDVGHGVKWLKAKHGNNQPARTGTLSRTNPPTQKPPSPPMSGRGTLGRNTPYKTLEPVKPPTVPNDYMTSPARLGSQHSPGRTASLNQRPRTHSGSSGGSGSRENSGSSSIGIPIAVPTPSPPTIGPAPGSAPGSQYGTMTRQISRHNSTTSSTSSGGYRRTPSVTAQFSAQPHVNGGPLYSQNSIADSPTPPPPPPPDDIPMFDDSPPPPPPPPVDYEDEEAAVVQYNDPYADGDPAWAPKNYIEKVVAIYDYTKDKDDELSFMEGAIIYVIKKNDDGWYEGVCNRVTGLFPGNYVESIMHYTD

Variants of: B1
Settings: with Abl1, P00520-4
Chain of Abl1, P00520-4 (P00520 other isoform, or with tags, fused parts or gaps): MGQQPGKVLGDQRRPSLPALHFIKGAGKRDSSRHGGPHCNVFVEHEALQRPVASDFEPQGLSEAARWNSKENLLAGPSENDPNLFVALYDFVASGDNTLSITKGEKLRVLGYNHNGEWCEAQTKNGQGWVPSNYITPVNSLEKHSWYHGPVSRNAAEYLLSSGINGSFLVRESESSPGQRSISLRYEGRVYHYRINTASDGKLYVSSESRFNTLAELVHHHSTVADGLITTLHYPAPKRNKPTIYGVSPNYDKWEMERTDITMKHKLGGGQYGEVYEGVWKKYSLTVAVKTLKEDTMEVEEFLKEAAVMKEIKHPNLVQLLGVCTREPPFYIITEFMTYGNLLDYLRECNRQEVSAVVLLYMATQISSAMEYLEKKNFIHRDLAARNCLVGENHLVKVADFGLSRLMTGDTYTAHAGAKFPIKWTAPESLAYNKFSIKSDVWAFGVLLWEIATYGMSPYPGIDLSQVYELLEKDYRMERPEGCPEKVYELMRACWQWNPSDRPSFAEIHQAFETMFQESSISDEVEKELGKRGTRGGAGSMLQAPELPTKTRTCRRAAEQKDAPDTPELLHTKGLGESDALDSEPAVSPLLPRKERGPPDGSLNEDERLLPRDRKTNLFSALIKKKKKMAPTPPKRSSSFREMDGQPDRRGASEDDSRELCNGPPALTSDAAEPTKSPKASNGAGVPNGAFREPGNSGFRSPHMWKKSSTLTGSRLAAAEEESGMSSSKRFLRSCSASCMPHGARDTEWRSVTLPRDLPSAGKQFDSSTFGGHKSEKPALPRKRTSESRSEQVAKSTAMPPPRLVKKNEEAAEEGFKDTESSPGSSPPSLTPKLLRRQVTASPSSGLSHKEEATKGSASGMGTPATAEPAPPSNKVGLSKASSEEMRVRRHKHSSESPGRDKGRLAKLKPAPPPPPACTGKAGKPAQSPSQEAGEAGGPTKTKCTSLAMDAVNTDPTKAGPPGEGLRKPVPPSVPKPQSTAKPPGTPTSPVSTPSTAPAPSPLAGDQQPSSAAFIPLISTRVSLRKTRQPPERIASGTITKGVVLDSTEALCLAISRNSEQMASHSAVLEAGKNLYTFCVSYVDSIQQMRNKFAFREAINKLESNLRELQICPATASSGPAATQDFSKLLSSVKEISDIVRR

effect of a mutation on the interaction | Variant
decreasing interaction | Y398F
decreasing interaction | Y213F
